Experiments:
Assay type in all cases: cell-based, human
Dok-1 = assay: SH2-precipitation (SH2C-RasGAP-GST) and Dok-1 blot of lysates from CD4+ T cells incubated with zanolimumab; settings: SH2-precipitate; for amount of precipitated Dok-1 after inhibitor pre-treatment: cells pre-incubated with inhibitor before zanolimumab exposure, FIG. 3D
Protocol: (§1) FIG. 3 illustrates results from CD4^+ T cells incubated with zanolimumab or a human immunoglobulin negative control. Cell lysates were CD4-precipitated (A), SH2-precipitated (B, D) or used as whole lysate (C). FIG. 3A: Two CD4-precipitates were submitted to a kinase assay (upper two panels). Blots were probed with antibodies to p56^Ick (top panel), the p56^Ick substrate α-casein (second panel), Y-394 phosphorylated p56^Ick (third panel), p56^Ick (fourth panel) or CD4 (bottom panel). The numbers below the blots represent densitometric values normalized for p56^Ick loading. FIG. 3B: Blots with SH2-precipitate were incubated with antibodies to Dok-1 (top panel) or GST (bottom panel). The numbers below the blots represent densitometric values normalized for GST loading. FIG. 3C: Proteins in whole cell lysate were separated by SDS-PAGE and blotted. Membranes were incubated with antibodies to phosphorylated SHIP-1 (top panel) or SHIP-1 regardless of phosphorylation status (bottom panel). The numbers below the blots represent densitometric values normalized for SHIP-1 loading. FIG. 3D: Before zanolimumab exposure, cells were pre-incubated with Src kinase inhibitors PP2 or damnacanthal (DAM). Blots were incubated with antibodies for Dok-1 (top panel) or GST (bottom panel). The numbers below the blots represent densitometric values normalized for GST loading. Results for the experiments shown here are representative of 4 independent experiments.
The activation of inhibitory adaptor molecules in T cells presented in FIG. 3 were obtained with CD4^+ T cells isolated as described in example 1. CD4^+ T cells (3×10E7 cells) were incubated with zanolimumab and, when appropriate, pre-incubated with Src kinase inhibitors PP2 or damnacanthal (Merck Biosciences, Nottingham, UK) before exposure to zanolimumab. Cell lysates were incubated with CD4-precipitating antibody and antibody-bound proteins were precipitated with protein-G sepharose. […] Proteins were detected with an HRP-conjugated secondary antibody, visualized by ECL and quantified using a phosphor-imager.

SHIP-1 = assay: Whole cell lysate blot for phosphorylated SHIP-1 in CD4+ T cells incubated with zanolimumab; settings: FIG. 3C
Protocol: as §1, with “FIG. 3D: Before zanolimumab exposure, cells were pre-incubated with Src kinase inhibitors PP2 or damnacanthal (DAM). Blots were incubated with antibodies for Dok-1 (top panel) or GST (bottom panel). The numbers below the blots represent densitometric values normalized for GST loading. Results for the experiments shown here are representative of 4 independent experiments.” left out
The activation of inhibitory adaptor molecules in T cells presented in FIG. 3 were obtained with CD4^+ T cells isolated as described in example 1. […] Proteins were detected with an HRP-conjugated secondary antibody, visualized by ECL and quantified using a phosphor-imager.

CD4^+ T cells = assay: Western blotting of T-cell signaling molecules in CD4+ T cells incubated with zanolimumab and stimulated with immobilized CD3 monoclonal antibody (OKT3)
Protocol: FIG. 2 illustrates results of Western blotting of cell lysates prepared from CD4^+ T cells stimulated with CD3 monoclonal antibody and zanolimumab. CD4^+ T cells were incubated with HuMax-CD4 and then stimulated with CD3 monoclonal antibody (OKT3) immobilized onto latex beads. Proteins in duplicate cell lysate samples were separated by 7-15% gradient gel SDS-PAGE and were transferred onto blotting membranes by electrophoresis. One membrane was incubated with a phosphotyrosine specific antibody, stripped and then re-probed with TCRζ and LAT specific antibodies (FIG. 2A). The other was incubated with antibodies to the phosphorylated form of specific proteins, stripped and then re-probed with ZAP-70 (2B), Erk1/2, p38 and AKT antibodies (2C). The numbers below the blots represent densitometric values normalized for loading relative to values observed after 2 min of CD3-stimulation in the absence of HuMax-CD4. Results for the experiments shown here are representative of 4 independent experiments.
The effect on T-cell signaling molecules upon T-cell activation presented in FIG. 2 were obtained with CD4^+ T cells isolated from peripheral blood from healthy donors. CD4^+ T cells were isolated using enrichment RosetteSep cocktail (Stemcell Technologies Inc, Canada) and separated by lymphoprep (Axis Shield, Poc AS, Norway) density centrifugation. CD4^+ T cells (10^7 cells) were incubated with zanolimumab and then stimulated with CD3 monoclonal antibody (OKT3, available from Orthoclone, Pharmacy, UMC, Utrecht) immobilized onto latex beads. Cell were lysed using lysis buffer (1% Nonidet P-40, 20 mM Tris-HCl, pH 7.4, 150 mM NaCl, 2 mM EGTA, 1 mM Na3VO4, 10 mM NaF, 10 mM sodium pyrophosphate and protease inhibitors (Roche Molecular Biochemicals, Sussex, UK)). Proteins in duplicate cell lysate samples were separated by 7-15% gradient gel SDS-PAGE and transferred onto blotting membranes by electrophoresis. Membranes were incubated with antibodies for specific tyrosine-phosphorylated proteins, stripped and then re-probed with antibodies recognizing the specific proteins regardless of their phosphorylation status. Proteins were detected with an HRP-conjugated secondary antibody, visualized by ECL and quantified using a phosphor-imager.

Row | Molecule | amount of precipitated Dok-1 after inhibitor pre-treatment (Dok-1) | phosphorylation of SHIP-1 (SHIP-1) | phosphorylation of Dok-1 (Dok-1; FIG. 3B) | tyrosine-phosphorylation of intracellular proteins following TCR stimulation (CD4^+ T cells; TCR stimulation via immobilized CD3 monoclonal antibody, FIG. 2A) | phosphorylation of LAT (36-38 kDa) (CD4^+ T cells; after CD3 stimulation, FIG. 2A) | phosphorylation of p21 and p23 phosphorylated isomers of the TCR-ζ chain (CD4^+ T cells; after CD3 stimulation, FIG. 2A) | phosphorylation of ZAP-70 (CD4^+ T cells; after CD3 stimulation, FIG. 2B) | AKT/PKB downstream signaling pathway (CD4^+ T cells; after CD3 stimulation, FIG. 2C) | Erk1/2 downstream signaling pathway (CD4^+ T cells; after CD3 stimulation, FIG. 2C) | p38 serine/threonine downstream signaling pathway (CD4^+ T cells; after CD3 stimulation, FIG. 2C) | inhibition of the very earliest T-cell activation events (CD4^+ T cells; summary of Example 1, densitometry relative to CD3 stimulation without antibody)
1 | CC(C)(C)n1nc(-c2ccc(Cl)cc2)c2c(N)ncnc21 [PP2] | reduced amount of precipitated Dok-1 | – | – | – | – | – | – | – | – | – | –
2 | COc1c(C=O)c(O)cc2c1C(=O)c1ccccc1C2=O [damnacanthal] | reduced amount of precipitated Dok-1 | – | – | – | – | – | – | – | – | – | –
3 | zanolimumab (antibody, listed as Homo sapiens, V domains shown, anti CD4 Vh; anti CD4 VL, anti-CD4 monoclonal human antibody (GenMab, Denmark), same as 6G5 of WO97/13852) VH: QVQLQQWGAGLLKPSETLSLTCAVYGGSFSGYYWSWIRQPPGKGLEWIGEINHSGSTNYNPSLKSRVTISVDTSKNQFSLKLSSVTAADTAVYYCARVINWFDPWGQGTLVT VL: DIQMTQSPSSVSASVGDRVTITCRASQDISSWLAWYQHKPGKAPKLLIYAASSLQSGVPSRFSGSGSGTDFTLTISSLQPEDFATYYCQQANSFPYTFGQGTKLEIK | – | induces phosphorylation | induces phosphorylation | generalized inhibition | inhibited | markedly inhibited | inhibition | inhibits | inhibits | inhibits | about 50%

From patent publication US9309315B2, “Therapy with CD4 binding peptides and radiation” (GENMAB A/S, priority 2005, dated 2016)
